T1: MED23 (mouse (Mus musculus; endogenous in CH12), UniProt Q80YQ2 1-1367)
T1 construct: MED23, Mus musculus, endogenous lower Tail subunit of Mediator; Model building started from the X-ray structure of human MED23 (PDB 6H02); source: endogenous, CH12 mouse B lymphoma nuclear extract; immunopurified as part of Mediator (FLAG M2 agarose, FLAG peptide elution)
T1 sequence (looked up): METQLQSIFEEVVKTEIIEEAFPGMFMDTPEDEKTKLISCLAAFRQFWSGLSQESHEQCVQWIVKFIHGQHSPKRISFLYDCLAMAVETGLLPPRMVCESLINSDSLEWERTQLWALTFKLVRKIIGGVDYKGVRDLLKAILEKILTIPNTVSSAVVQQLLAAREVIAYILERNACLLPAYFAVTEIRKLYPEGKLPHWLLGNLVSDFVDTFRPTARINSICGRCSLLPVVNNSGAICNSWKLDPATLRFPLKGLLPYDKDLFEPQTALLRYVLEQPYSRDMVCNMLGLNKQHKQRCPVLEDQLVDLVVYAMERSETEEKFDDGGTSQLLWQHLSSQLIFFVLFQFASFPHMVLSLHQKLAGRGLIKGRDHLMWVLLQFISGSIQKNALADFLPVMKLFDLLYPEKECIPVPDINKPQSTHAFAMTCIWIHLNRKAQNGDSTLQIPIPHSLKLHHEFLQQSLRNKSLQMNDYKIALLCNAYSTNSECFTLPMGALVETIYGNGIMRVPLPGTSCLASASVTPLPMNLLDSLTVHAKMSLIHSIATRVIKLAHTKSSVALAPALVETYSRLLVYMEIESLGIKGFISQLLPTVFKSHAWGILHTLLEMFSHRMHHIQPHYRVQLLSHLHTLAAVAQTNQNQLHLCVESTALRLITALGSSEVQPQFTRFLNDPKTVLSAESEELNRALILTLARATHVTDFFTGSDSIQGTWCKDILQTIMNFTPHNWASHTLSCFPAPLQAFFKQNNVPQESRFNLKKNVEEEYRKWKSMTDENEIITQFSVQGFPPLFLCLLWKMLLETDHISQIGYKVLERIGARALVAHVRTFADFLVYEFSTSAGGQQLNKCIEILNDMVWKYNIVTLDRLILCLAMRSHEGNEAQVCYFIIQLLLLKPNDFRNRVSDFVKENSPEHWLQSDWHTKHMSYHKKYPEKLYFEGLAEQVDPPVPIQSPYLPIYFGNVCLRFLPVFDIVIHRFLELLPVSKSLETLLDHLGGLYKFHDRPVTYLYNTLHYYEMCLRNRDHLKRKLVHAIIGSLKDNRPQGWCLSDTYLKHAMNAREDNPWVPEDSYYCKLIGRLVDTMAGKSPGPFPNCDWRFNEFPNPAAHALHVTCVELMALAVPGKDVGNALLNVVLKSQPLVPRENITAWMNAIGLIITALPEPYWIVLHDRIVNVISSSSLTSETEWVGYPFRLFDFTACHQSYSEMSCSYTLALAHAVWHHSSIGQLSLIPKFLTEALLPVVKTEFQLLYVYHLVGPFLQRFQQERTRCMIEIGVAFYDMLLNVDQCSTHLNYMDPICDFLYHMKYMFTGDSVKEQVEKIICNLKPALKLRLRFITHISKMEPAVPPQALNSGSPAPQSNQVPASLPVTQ

T2: MED24 (mouse (Mus musculus; endogenous in CH12), UniProt Q99K74 1-987)
T2 construct: MED24, Mus musculus, endogenous lower Tail subunit of Mediator; source: endogenous, CH12 mouse B lymphoma nuclear extract; immunopurified as part of Mediator (FLAG M2 agarose, FLAG peptide elution)
T2 sequence (looked up): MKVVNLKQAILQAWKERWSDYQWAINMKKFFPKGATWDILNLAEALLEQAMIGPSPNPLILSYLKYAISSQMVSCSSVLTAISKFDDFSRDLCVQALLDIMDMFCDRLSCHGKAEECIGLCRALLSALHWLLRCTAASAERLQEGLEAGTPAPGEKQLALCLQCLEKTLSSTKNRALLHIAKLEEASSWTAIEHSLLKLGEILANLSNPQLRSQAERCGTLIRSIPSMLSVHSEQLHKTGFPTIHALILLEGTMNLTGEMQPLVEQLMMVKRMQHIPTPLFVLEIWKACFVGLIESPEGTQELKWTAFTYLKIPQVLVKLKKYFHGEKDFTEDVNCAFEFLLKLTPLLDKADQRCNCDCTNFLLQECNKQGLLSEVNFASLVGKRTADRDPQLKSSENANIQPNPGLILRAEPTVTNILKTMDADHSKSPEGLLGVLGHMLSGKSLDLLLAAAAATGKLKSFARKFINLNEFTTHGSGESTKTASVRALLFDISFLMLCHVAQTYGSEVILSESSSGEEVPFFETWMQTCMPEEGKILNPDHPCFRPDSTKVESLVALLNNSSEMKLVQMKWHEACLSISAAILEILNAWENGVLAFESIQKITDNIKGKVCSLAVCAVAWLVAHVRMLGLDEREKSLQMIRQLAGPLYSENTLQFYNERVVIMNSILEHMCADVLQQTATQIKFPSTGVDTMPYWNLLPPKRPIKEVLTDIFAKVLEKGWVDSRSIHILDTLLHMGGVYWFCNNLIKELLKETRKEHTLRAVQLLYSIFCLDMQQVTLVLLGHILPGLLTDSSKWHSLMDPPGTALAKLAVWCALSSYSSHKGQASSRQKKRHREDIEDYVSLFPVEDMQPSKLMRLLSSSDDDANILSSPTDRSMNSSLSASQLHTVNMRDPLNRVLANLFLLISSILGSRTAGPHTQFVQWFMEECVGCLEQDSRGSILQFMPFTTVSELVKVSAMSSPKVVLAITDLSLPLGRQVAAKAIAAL

T3: MED15 (mouse (Mus musculus; endogenous in CH12), UniProt Q924H2 1-789)
T3 construct: MED15, Mus musculus, endogenous lower Tail subunit of Mediator; only the C-terminal portion (from residue 620) is seen in the map; source: endogenous, CH12 mouse B lymphoma nuclear extract; immunopurified as part of Mediator (FLAG M2 agarose, FLAG peptide elution)
T3 sequence (looked up): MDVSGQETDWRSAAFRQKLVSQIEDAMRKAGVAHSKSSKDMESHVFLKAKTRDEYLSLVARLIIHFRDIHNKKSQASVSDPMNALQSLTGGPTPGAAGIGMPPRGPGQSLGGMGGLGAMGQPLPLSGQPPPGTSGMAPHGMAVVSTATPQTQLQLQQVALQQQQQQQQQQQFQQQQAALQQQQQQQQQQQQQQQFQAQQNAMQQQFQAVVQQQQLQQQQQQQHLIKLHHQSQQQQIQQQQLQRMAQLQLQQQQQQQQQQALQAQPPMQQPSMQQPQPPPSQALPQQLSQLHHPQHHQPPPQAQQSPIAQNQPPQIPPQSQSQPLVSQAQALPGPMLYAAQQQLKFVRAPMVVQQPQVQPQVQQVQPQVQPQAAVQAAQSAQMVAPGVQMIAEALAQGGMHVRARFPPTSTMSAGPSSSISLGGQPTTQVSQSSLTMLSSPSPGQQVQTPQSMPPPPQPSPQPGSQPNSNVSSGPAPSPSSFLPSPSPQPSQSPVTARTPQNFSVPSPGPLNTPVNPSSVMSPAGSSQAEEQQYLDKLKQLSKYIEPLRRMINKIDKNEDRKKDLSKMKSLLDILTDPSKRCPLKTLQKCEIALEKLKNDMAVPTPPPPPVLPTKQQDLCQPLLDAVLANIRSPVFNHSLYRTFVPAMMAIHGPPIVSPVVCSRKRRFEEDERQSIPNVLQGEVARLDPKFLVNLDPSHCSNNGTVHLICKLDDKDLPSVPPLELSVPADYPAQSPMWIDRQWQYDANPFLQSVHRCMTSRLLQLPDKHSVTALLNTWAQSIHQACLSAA


Experiments:
Test in all cases: cryo-EM structure; endogenous mouse Mediator immunopurified from CH12 nuclear extract through 3×FLAG-MED19 or 3×FLAG-MED25; eluted in 50 mM HEPES pH 7.9, 100 mM KCl, 5% glycerol, 1 mM EDTA, 0.005% NP-40; map at 4.0 Å overall, focused refinement of the MED1 and knob/hook ends (6-10 Å)
Settings in all cases: both partners purified
MED23 = molecular target: T1, MED23
MED24 = molecular target: T2, MED24
MED15 = molecular target: T3, MED15

Binder | binding result (MED23) | binding result (MED24) | binding result (MED15)
MED16 (natural protein, mouse (Mus musculus; endogenous in CH12), UniProt Q6PGF3 1-828, looked up, MED16, Mus musculus, endogenous lower Tail subunit of Mediator; source: endogenous, CH12 mouse B lymphoma nuclear extract; immunopurified as part of Mediator (FLAG M2 agarose, FLAG peptide elution)) MDLAYVCEWEKWAKSTYCPSLPLACAWSCRNLIAFTTDLRNDDQDLTHMIHILDTEHPWEVHSVSSGHSEAITCLEWDQSGSRLLSADADGQIKCWSMADHLANSWESSVGSQVEGDPIVALSWLHNGVKLALHVEKSGASSFGEKFSRVKFSPSLTLFGGKPMEGWIAVTVSGLVTVSLLKPSGQVLTSTESLCRLRGRVALADIAFTGGGNIVVAAADGSSASPVKFYKVCVSVVSEKCRIDTEILPSLFMRCTTDPNRKDRFPAITHLKFLARDMSEQVLLCASSQTSSLVECWSLRKEGLPVNNIFQQISPVVGDKQPMILKWRILSATNDLDRVSAVALPKLPISLTNTDLKVASDTQFYPGLGLALAFQDGSVHMVHRLSLQTMAVFYSSAPRSLDEPALKRPRTTCPAVHFKAMQLSWTSLALVGIDNHGKLSMLRISPSLGHPLEPKLALQHLLFLLEYCMVTGYDWWDILLHVQPGMVQSLVERLHEEYTRQKPALQQVLSTRILAMKASLCKLSPCTVARVCDYHTKLFLMAITSTLKSLLRPHFLNTPDKSPGDRLAEICAKITDVDIDKVMINLKTEEFVLDMNTLQALQQLLQWVGDFVLYLLVSLPNQGSPLRPGHSFLRDGTSLGMLRELMVVIRIWGLLKPSCLPVYTATSDTQDSMSLLFRLLTKLWICCRDEGAASEPDEGLVDECCLLPSQLLVPNLDWLPASDGLVSRLQPKQPLRLRFGRAPTLPSSTSTLQLDGLTRAPGQPKIDHLRRLHLGAYPTEECKACTRCGCVTMLKSPNKTTAVTQWEQRWIKNCLCGGLWRRVPLSCS | binds | binds | 
MED17 (natural protein, mouse (Mus musculus; endogenous in CH12), UniProt Q8VCD5 1-649, looked up, MED17, Mus musculus, endogenous Head module scaffold subunit of Mediator; source: endogenous, CH12 mouse B lymphoma nuclear extract; immunopurified as part of Mediator (FLAG M2 agarose, FLAG peptide elution)) MSGVRAVRISIESACEKQVQEVGLDGTETYLQPLSMSQNLARLAQRIDFSQGSGSEEEEAAGPDGDAPDWGGAGADQDDEEGLVKFQPSLWPWDSVRNNLRSALTEMCVLYDVLSIVRDKKFMTLDPVSQDALPPKQSPQTLQLISKKKSLAGAAQILLKGAERLTKSVAENQENKLQRDFNSELLRLRQHWKLRKVGDKILGDLSYRSAGSLFPHHGTFEVIKNTDIDLDKKIPEDYCPLDVQIPSDLEGSAYIKVSIQKQAPDIGDLGTVNLFKRPLPKSKPGSPHWQTKLEAAQNVLLCKEIFAQLSREAVQIKSQIPHIVVKNQIISQPFPSLQLSISLCHSSDDKKSQKCAAEKPGQEDHLYVLEHNLHLLIREFHKQTLSSIVMPHPASAPFGHKRMRLSGPQAFDKNEINSIQSTEGLLEKIIKQAKHIFLRSRTAATIDSLASRIEDPQIQAHWSNINDVYESSVKVLITSQGYEQICKSIQLQLNIGVEQVRVVHRDGRVIMLSHQEQELQDFLLSQMSQHQVHAVQQLAKVMGWQVLSFSNHVGLGPIESIGNASAITVASPSGDYAISVRNGPESGSKIMVQFPRNQCKDLPKSDVLQDSKWSHLRGPFKEVQWNKMEGRNFVYKMELLMSALSPCLL |  |  | binds
